Laboratory results published in PMC7816212 (Nature, 2020).
No end group written: not given here. *: point of attachment. FITC = O=C1OC2(c3ccc(O)cc3Oc3cc(O)ccc32)c2ccc(NC(=S)*)cc21

Tests used:
[1] = biological target: biotinylated BCL6^5−129 (human, UniProt A5PL18 5-129, biotin); assay: FRET or BRET
[2] = biological target: BodipyFL-labeled BCL6^5−360 (human, UniProt A5PL18 5-360, BodipyFL label (site not stated)); assay: FRET or BRET

{FITC}-RSEIISTAPSSWVVPGP [N-terminal FITC-labeled BCoR peptide]: binds [1].

B1: biotinylated Strep II Avi-tagged SIAH1^SBD (domain or fragment)
chain: VANSVLFPCKYASSGCEITLPHTEKADHEELCEFRPYSCPCPGASCKWQGSLDAVMPHLMHQHKSITTLQGEDIVFLATDINLPGAVDWVMMQSCFGFHFMLVLEKQEKYDGHQQFFAIVQLIGTRKQAENFAYRLELNGHRRRLTWEATPRSIHEGIATAIMNSDCLVFDTSIAQLFAENGNLGINVTISMC
modifications: biotin
B1 was tested, and the Kd [2] was 200 nM.
